According to PMC5775349:

Tests used:
[1] = target: 40S ribosomes of S223A cells (S. cerevisiae | S. cerevisiae (endogenous in yeast cells)) (UniProt P26783); assay: co-sedimentation; yeast lysate in TSM buffer (10 mM Tris-HCl pH7.4, 100 mM NaCl, 30 mM MgCl2), 10-40% sucrose gradient ultracentrifugation; fractions blotted with anti-HA and anti-Rio2; densitometry, duplicate experiments
[2] = target: 40S ribosomes of cells with WT uS7 (S. cerevisiae | S. cerevisiae (endogenous in yeast cells)) (UniProt P26783); assay: as above

- percent of Rio2 in the 40S fraction [1]: 28%
- percent of Rio2 in the 40S fraction [2]: 41%
Substance: Rio2, endogenous (from UniProt P40160 1-425) (natural protein)
